According to ChEMBL document CHEMBL1154924, “Carbonic anhydrase activators: Activation of the beta-carbonic anhydrase from the pathogenic yeast Candida glabrata with amines and amino acids” (Bioorg Med Chem Lett, 2010):

Assays:
[1] = substrate: NCCc1c[nH]cn1; settings: Nakaseomyces glabratus
Description: Activity at Candida glabrata recombinant carbonic anhydrase

[2] = substrate: NCCc1c[nH]cn1; settings: Methanothermobacter thermautotrophicus
Description: Activity at archaea Methanobacterium thermoautotrophicum recombinant carbonic anhydrase

[3] = substrate: NCCc1c[nH]cn1; settings: Saccharomyces cerevisiae
Description: Activity at Saccharomyces cerevisiae recombinant Nce103p

B1: Carbonic anhydrase (Candida glabrata CBS 138), Q6FTL6 (protein)
chain: MTKDTIFTLTGKCALDNILDANRQWAQAMHRSQPQLFPTNGQGQDPHTLFIGCSDSRYNEDCLGVLPGEIFTLKTVANICHTDDHSLLATLEFAILNLKVNRIILCGHTDCGGIKTCLLGRESIKESCPHLYEHLDDIEDLVESHESELNQLDNICSKSKLMSHRNVERQLQRLLQIPVVQDALRNSNQDHEFNIFGLVYNVDSGLVDVVREVYGNQQK
Km [1]: 7.9 mM

B2: Carbonic anhydrase (Methanobacterium thermoautotrophicum), Q50565 (protein)
chain: MRFVSMIIKDILRENQDFRFRDLSDLKHSPKLCIITCMDSRLIDLLERALGIGRGDAKVIKNAGNIVDDGVIRSAAVAIYALGVNEIIIVGHTDCGMARLDEDLIVSRMRELGVEEEVIENFSIDVLNPVGDEEENVIEGVKRLKSSPLIPESIGVHGLIIDINTGRLKPLYLDED
Km [2]: 1.7 mM

B3: Carbonic anhydrase (Saccharomyces cerevisiae S288c), P53615 (protein)
chain: MSATESSSIFTLSHNSNLQDILAANAKWASQMNNIQPTLFPDHNAKGQSPHTLFIGCSDSRYNENCLGVLPGEVFTWKNVANICHSEDLTLKATLEFAIICLKVNKVIICGHTDCGGIKTCLTNQREALPKVNCSHLYKYLDDIDTMYHEESQNLIHLKTQREKSHYLSHCNVKRQFNRIIENPTVQTAVQNGELQVYGLLYNVEDGLLQTVSTYTKVTPK
Km [3]: 9.5 mM
